According to the DeepSol protein solubility set:

Assay: soluble on expression in E. coli; label from the status in PepcDB or PDB records
With “MFSDYHVHSSFSFDSEESPRAIVEKAIALGMKQICFTDHQDFNWPIKGESPYIDFPKYFEVLNSLRNEYSSKINILKGVELGLTSDNFSLCHKFLDSYDFDFVIGSCHIVDQMDPYYAEFWKGKNDRDCFELYFKTLLDSLKFFIGRNTCTTPRTVNTLGHLDYIVRYSPNKDNNYSVADYIDVIDEILKMIIENDIKLEINTSNFSKGFDFPNPHTDIIRRYKELGGLYVTVGSDAHKAQFIGSGFDLVEKIVEKYKLKVFTI” the “soluble on expression in E. coli” value was “not soluble”.
With “MGLLVDGRWQDQWYESSKDGAFQRENAQRRNWVTRDGQAGPSGEGGFAAEAGRYHLYVSLACPWAHRTLILRKLKGLEKLIDVSVVSWLMLENGWTFDQQKGSSGDALDDFQFFHQRYTADDPRYTGRVTVPVLWDKQQQRIVSNESAEIIRMFNAAFDELTGNTLDFYPSALQSSIDELNEQIYPKVNNGVYRAGFATSQGAYEEAFDDVFAELDVLENLLGEKRYLTGKHLTEADIRLFTTIVRFDAVYYSHFKCNLRRIADYPNLSNWLRELYQWPGIAETVDFEHIKGHYYASHRTINPTGIIPKGPALDLQAGHDRERLSGEGAWSK” the “soluble on expression in E. coli” value was “not soluble”.
For “MPGLCTGPFAKGRCMSLLAQLDQKIAANGGLIVSCQPVPDSPLDKPEIVAAMALAAEQAGAVAIRIEGVANLQATRAVVSVPIIGIVKRDLEDSPVRITAYIEDVDALAQAGADIIAIDGTDRPRPVPVETLLARIHHHGLLAMTDCSTPEDGLACQKLGAEIIGTTLSGYTTPETPEEPDLALVKTLSDAGCRVIAEGRYNTPAQAADAMRHGAWAVTVGSAITRLEHICQWYNTAMKKAVL”, the “soluble on expression in E. coli” value was “soluble”.
For “GSPEFMIGEEVPSDQYYWAPLAQHERGSLASLDSLRKGGPPPPNWRQPELPEVIAMLGFRLDAVKSNAAAYLQHLCYRNDKVKTDVRKLKGIPVLVGLLDHPKKEVHLGACGALKNISFGRDQDNKIAIKNCDGVPALVRLLRKARDMDLTEVITGTLWNLSSHDSIKMEIVDHALHALTDEVIIPHSGWEREPNEDCKPRHIEWESVLTNTAGCLRNVSSERSEARRKLRECDGLVDALIFIVQAEIGQKDSDSKLVENCVCLLRNLSYQVHREIPQAERYQEAAPNVANNTGTSPARGYELLFQPEVVRIYISLLKESKTPAILEASAGAIQNLCAGRWTYGRYIRSALRQEKALSAIADLLTNEHERVVKAASGALRNLAVDARNKELIGKHAIPNLVKNLPGGQQNSSWNFSEDTVISILNTINEVIAENLEAAKKLRETQGIEKLVLINKSGNRSEKEVRAAALVLQTIWGYKELRKPLEKEGWKKSDFQVNLNNASRSQSSHSYDDSTLPLIDRNQKSDKKPDREEIQMSNMGSNTKSLDNNYSTPNERGDHNRTLDRSGDLGDMEPLKGTTPLMQKI”, the “soluble on expression in E. coli” value was “soluble”.
In the case of “MAHHHHHHMSFAGLQKRLKNKAVATTTTNSTPPSSDAKTDNIESSSSVYDVAAREARANHEERKRQRSPHDKENTAYNPTINERNGPADMLSDHPSVEKASSKTLTETEFLERRHLAEEVVLQCAEAMSRNMELAATSIDKIDIKKESEVYDMSGLPLPLCQFLEQRLQRSSDATAMLISTCEEEEHNLVSALRSPSNLPMLFPPQVEDFVTTLRTLWLALCWHWVMALRGKEGNEGKEVSENGWSYNVYLLSRHALPITVRNTRGRDVALALQAWQEAYRVRQNMLDFLAYILHDMGVVLRFSGDDASKGDENLRIVPPKIADSIFCMVQHLRRRDFTTVRQAYVELTMGTANWKLGLFSGGEVHMRRSMERIERRRIEHLLHNERAVRLLHVLRELIEFVQKNEVMLLHTGIFAREKSMKEHSP”, the “soluble on expression in E. coli” value is reported as “not soluble”.
In the case of “MGSDKIHHHHHHVLAPSSADTLQGLPYEVVSYRKTYESGYRSDWHSHPRHQIIYSVSGLMMTDTEGVRWAVPSGFGLIVPAGIAHTTKMIGDVSIETLYVSPSSRGRSAFESCRVVSISAMLASLISELCREELRDRNSRKAFHLRQLIFLELSDAPTSHLAVKYPVDPQLRRVCDALIADPANSWTIDQWAFEIGKSRRSFTRAFYSQTDQTFRQWTQRLRCQLALQKRAEGQSLERIARDLGYGSRYSLEAMMQKLIMVEEIN”, the “soluble on expression in E. coli” value is reported as “not soluble”.
With “MGSDKIHHHHHHMIITTALANEIVARAMAIIHHNVNVIDHHGQIIASGERHRIGEQHEVAREVIRTGKRICINNAAEAARFHNVHPGINHPIIYDDRVVMVVGISGDPAAISRYAELAVLTAELLVRQAIEMRETNWRQRLRDTLFCQYLEQGATPAGQEALHRLLELGFDFDTPRVPIVVTVQVEQHQLSDILSTLLREFSQLSGVSDVILLGSHEILILNALSEAQETLLRGIEFVLSNQISHYHIGIGVQADSAPDIREAIRFARSVIEVGSKVQPQRQIYYFREMAMLCLFRVLEDSYMVNFFINNVRQLLEHDSGEVLLDTLSSFIANNAEPGKTSLLLGIHRNTLTYRLQQIKKHIQLDPMVFTDLTQLAVSVHCYRRLNPRQSEWIDSLS” the “soluble on expression in E. coli” value was “not soluble”.
With “MGSDKIHHHHHHMTSLKQQLLDVKGGRNFRELGGYQTVSGKKIKMHKLIRSGHLADLLKEDQEYLRRYGLKYDIDLRTSFERNKQPDRKISGVEYFADPVFDEDLTNSTMSISDMARESQDPGWGYQRMLWAYKNMATGKNANKAYQHLFEVLLANEKDSESVLFHCTAGKDRTGFGAILILTALGVPMKTIEKDYLFTNEVIKDFVSQLLAKEKAAGADDSLLATFRDLQTVQPAYFKYLLDVINRNYGSINAYLHQQIGLSNADLLDLRTIYLEK” the “soluble on expression in E. coli” value was “not soluble”.
For “MSLPNEQPGTGPADTTLEQQDTAAAEVGHPRRIRSFVRRAGRTSTGQQRAIDELGPRFLLPYAAAPLDWEAAFGRTGARRIFEIGFGMGETSAHIAQLRPDDDFLGVEVHEPGVGALLKLIGERGIGNVRIVSHDAVEVLAQMIPEGTLDGIHVFFPDPWHKKRHNKRRLIQGPFVARLAAHLRPGGYLHCATDWEEYAHQMLEVLSAEPLLENTADGFAPRPDYRPVTKFEKRGLRLGHGVWDVVFRKREGHHHHHH”, the “soluble on expression in E. coli” value was “not soluble”.
For “MGSDKIHHHHHHMITSDELTENLSPFELSLFLEKKLHEENHNLETLLNAGRGNPNWTAPTPREAFFLLGQFATKETLREGSEQTAGMIQPSFGRTQRFLNFLAENPSKGATFLQEIWTAEHNYFGMDKEMWLDAMLDYVIGDNYPNPVRCLKACEQPIKAYLNQELFSSEAQPFDIFAVEGGTAGICYLFDTLANNYLLEKGDRIALLLPTFAPYLEIPELPRYDFDVVKIKAEQMIIDGKTTYQYSNKEIDKLKDPSIKAVFVVNPSNPTANAMGKPTIEQIKQISAVDNPKLMILTDDVYGTFVPAFRSLFTELPYNTACIYSYSKYFGATGWRVGTIAVSQENIFDQLLKELPVARKMELQARYATLNADTSQINFISRLVADSRDIALNHAAGLSSIQQAMMALFSLYALLKDGQAYKDEVMDICHTREKLLFRTLGIEEPLASLNTAYYCEINFRDWTEKRYGPEFSSYLTKSWTITKVLTSLAEKEKLMLLKADAFGSDKWSVRISLANLATNQYSEVGKRMIRLSEHIKEEWLRQKRQAIK”, the “soluble on expression in E. coli” value was “not soluble”.
In the case of “MGSSHHHHHHGKTIFVIVPTNEEQVAFLEALAKQDELNFDWQNPPTEPGQPVVILIPSDMVEWFLEMLKAKGIPFTVYVEEGGSENLYFQGGGGGGAKDCITRGPNSMIAWKYEDGSFQCDNCIGAHAVGVSSGTVRRRWTEYDKDRNILNSFVEEHREGKKLVLHDESRGMSILLRSDLSGIRTEGEQTFRQLYSGAFISVVDCT”, the “soluble on expression in E. coli” value is reported as “soluble”.
In the case of “MSLADISVIQSLPLSGSQAVTGRALNAGARLYFDWLNLNGGINGETIRLVARDDEQKIEQTVRNVRDMARVDNPVALLTVVGTANVEALMREGVLAEARLPLVGPATGASSMTTDPLVFPIKASYQQEIDKMITALVTIGVTRIGVLYQEDALGKEAITGVERTLKAHALAITAMASYPRNTANVGPAVDKLLAADVQAIFLGATAEPAAQFVRQYRARGGEAQLLGLSSIDPGILQKVAGLDAVRGYSLALVMPNPGKSVNPVIREFNRARAAVGAKDVDLSFRAVEGFVAAKVLAEAIRRAGPKPTREQVRHALTELRDYDVGGGFTVDFTDRSRPGSHYIELGVVGPNGLVIQEGHHHHHH”, the “soluble on expression in E. coli” value is reported as “soluble”.
With “MKSYAILNQNNLFLSLEELKAIIDSDEVEYYHGVALFNKEPNNVAKRSSLIKYSGRVIAISHDVNEIVKNIKGECFSVDPTVITKEYKSEFLSIYDRIINNIKVSKKCKKMDLIFTEGLIIAGLRVEEKDNESLFKHSKKPYSQSGTLSPDIGRLMVNLSKSRKTILDPFVGTGTILIEAKWLGLNCIGLDVDSKMIEKSLVNLRYFGYECDILRGDATSLPFNNIEAIVTDPPYGRSVSVREGINNLYEGFFYSASNITRTLVFTTDSKLDWRDKLKEVGFNDISIHFIYEHKSLSRAIYVVRKK” the “soluble on expression in E. coli” value was “soluble”.
For “MSLEKNALYFVPLGGAGEIGMNLNLYAHQGKWLMVDLGVTFGNETTPGVDIILPDPSFIEERKGDLVGLVLTHAHEDHVGAVAYLWPYLECPVYATPFTAEFLRHKLREEGIEPDVKLIEIPLGGRFTVGPFDIEMITTTHSIPEPNHLAIRTTAGTVLHTADWKFDPEPLVGPPADEAALRRLGDEGVLAMVGDSTNIFTEGHSASEGDVRRSMIDLFARFQGRIAVGCFASNIARMETIALAAKANGREVALVGRSLWRMMETARTCGYLKGCPAFLGDEEAAKLPRDKVVYICTGSQGEPRAALKRIASGSHPYVSLSAGDVVIFSSRVIPGNERSILQLQNQLVEMGVKLITSRDAMVHVSGHPGAEEVRSLYGMVRPSIALPVHGEFLHLDHHADVARDLGVAHVVRITNGAVVRLDGAEPTVVGKVPFGRLALDGDRLLQIDCEIIRDRKRMGYNGSVAVSLAIDDKGKLLGTPKISARGLLDPEDDADEVADLTNRVRGAVNAVRPADRKDDAAVAEAVRLAVRRVFRQGQNRRPVTDIHVLRVEGHHHHHH”, the “soluble on expression in E. coli” value was “soluble”.
For “MGSDKIHHHHHHKDSNKWKMTGDVSVQDDIMTLKGTDALAVLKNGKYKNFDLTLDLRTTPGGKGAVWFHTDPTLKKGYRIAINNDRADKVWWKMTGSLVSVRNLTKSFVKEDQWFKMDIRVAGQEIDVNINGEPVVEYIQPTAPYRTDANAYALLSEGTFAIESDGSGEIQIKNITVNVIDESTIDINAQLAEANDEQNDEIIKLHQSDFPVLDYHVHLKGGLTKEVAAKQSRKTGINYTIAPNCGIGFPITNDQQVMDYLNEMRSQPFILGMQAEGREWITTFSPETLKEFDYVFTDALTFKDNKGRRTRLWIPEETWIENEEQYMDMIVDRICSVLEEPVDIYVNPCFLPSPMDKRFDEFWTEARMNRFVEALAKSGKALEINELYNIPNKAIIMKAKAAGVKFTFGSNNVTPNVSDLSYSIRMMKECGLTAEDMYKPKVKI”, the “soluble on expression in E. coli” value was “not soluble”.
With “MSLAADKVVVMLNWYVYGEHAPFYYGKAKGIYAAEGIDLEIQEGRGSAATTQAVAAKTADFGYVDVPTMMRAAIKGAPVVATGVLLQTSPMSAMGFVDKNIRKPEDIKGKTVAITPADSMTQIWPLFLKKTGLKESDFQTVAGDGQTKLNAVINGQADLLLGYVMDQSMKIKDATGKDVYPIKFADYGINMVSSGIIANSDYVKANADLVRRFMSATTKAVEAAEKEPKAAAQSILDANPKGGKIDTLTQGFELTIPLYRTAATKSKRPFQVTEQNMTETVNLLVEYGGLDAKAKDNPKAFYTNDYLPKSGEGHHHHHH” the “soluble on expression in E. coli” value was “soluble”.
In the case of “MNNNVITRFAPSPTGFLHIGSARTALFNYLFARHHNGKFLLRIEDTDKERSTKEAVEAIFSGLKWLGLDWNGEVIFQSKRNNLYKEAALKLLQNGKAYYCFTRQEEIERQRQQALENKQHFIFNSEWRDKDPSIYPTDIKPVIRLKTPREGSITIHDTLQGEVVIENSHIDDMVLLRADGTATYMLAVVVDDHDMGITHIIRGDDHLTNTARQLAIYQAFGYAVPSMTHIPLIHGADGAKLSKRHGALGIEAYKDMGYLPESLCNYLLRLGWSHGDDEIISMTQAIDWFNLDSLGKSPSKLDFAKMNSLNAHYLRMLDNDSLTSKTVEILEQNYNTLLRHLPYREEFGGNTERSTAAYIDIREDASTGLTYKLPLAVELPKKFKISEQEIGYIKQAMPSLLVRSETLLELTRLAQIYLVDSPIIYSQDSKEIIENCDKNLIKQIIENLSELEQFDKESVQNKFKEIAAANDLKLNDIMKPVRALITGMTASPSIFEIAEILGKENILKRLKII”, the “soluble on expression in E. coli” value is reported as “soluble”.
